# Source: US20210196823A1, “Methods of Treating Metabolic Disease” (Pfizer Inc., priority 2018, published 2021)
# T1: BMP2 (UniProt P12643 283-396)
# T1 chain: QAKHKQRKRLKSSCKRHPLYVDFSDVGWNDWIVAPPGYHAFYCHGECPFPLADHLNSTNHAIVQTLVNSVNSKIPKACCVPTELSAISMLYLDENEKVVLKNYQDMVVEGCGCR
# T2: BMP4 (UniProt P12644 293-408)
# T2 chain: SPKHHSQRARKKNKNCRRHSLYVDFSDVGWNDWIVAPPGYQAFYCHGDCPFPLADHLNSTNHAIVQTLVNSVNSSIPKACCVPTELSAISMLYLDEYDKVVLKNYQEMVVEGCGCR
# T3: BMP6 (UniProt P22004 382-513)
# T3 chain: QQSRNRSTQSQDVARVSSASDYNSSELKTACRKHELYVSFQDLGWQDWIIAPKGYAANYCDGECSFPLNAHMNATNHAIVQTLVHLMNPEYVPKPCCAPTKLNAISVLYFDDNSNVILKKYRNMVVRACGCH
# B1: BMP5: bone morphogenetic protein 5 (R&D systems) (protein)
# chain: AANKRKNQNRNKSSSHQDSSRMSSVGDYNTSEQKQACKKHELYVSFRDLGWQDWIIAPEGYAAFYCDGECSFPLNAHMNATNHAIVQTLVHLMFPDHVPKPCCAPTKLNAISVLYFDDSSNVILKKYRNMVVRSCGCH
# B2: BMP9: bone morphogenetic protein 9 (R&D systems) (protein)
# chain: SAGAGSHCQKTSLRVNFEDIGWDSWIIAPKEYEAYECKGGCFFPLADDVTPTKHAIVQTLVHLKFPTKVGKACCVPTKLSPISVLYKDDMGVPTLKYHYEGMSVAECGCR
# B3: BMP6: bone morphogenetic protein 6 (R&D systems) (protein)
# chain: QQSRNRSTQSQDVARVSSASDYNSSELKTACRKHELYVSFQDLGWQDWIIAPKGYAANYCDGECSFPLNAHMNATNHAIVQTLVHLMNPEYVPKPCCAPTKLNAISVLYFDDNSNVILKKYRNMVVRACGCH
# B4: human ERFE: recombinant human erythroferrone, SEQ ID NO: 1 (protein, listed as Homo sapiens)
# chain: MAPARRPAGARLLLVYAGLLAAAAAGLGSPEPGAPSRSRARREPPPGNELPRGPGESRAGPAARPPEPTAERAHSVDPRDAWMLFVRQSDKGVNGKKRSRGKAKKLKFGLPGPPGPPGPQGPPGPIIPPEALLKEFQLLLKGAVRQRERAEPEPCTCGPAGPVAASLAPVSATAGEDDDDVVGDVLALLAAPLAPGPRAPRVEAAFLCRLRRDALVERRALHELGVYYLPDAEGAFRRGPGLNLTSGQYRAPVAGFYALAATLHVALGEPPRRGPPRPRDHLRLLICIQSRCQRNASLEAIMGLESSSELFTISVNGVLYLQMGQWTSVFLDNASGCSLTVRSGSHFSAVLLGV
# B5: BMP7: bone morphogenetic protein 7 (R&D systems) (protein)
# chain: STGSKQRSQNRSKTPKNQEALRMANVAENSSSDQRQACKKHELYVSFRDLGWQDWIIAPEGYAAYYCEGECAFPLNSYMNATNHAIVQTLVHFINPETVPKPCCAPTQLNAISVLYFDDSSNVILKKYRNMVVRACGCH
# B6: ERFE A4-biotin (ligand)
# chain: AAGLGSPEPGAPSRSAAAAEPPPGNELPRGPGESRAGPAARPPEPTAERAHSVDPRDAWMLFVRQSDKGVNGKKRSRGKAKKLKFGLPGPPGPPGPQGPPGPIIPPEALLKEFQLLLKGAVRQRERAEPEPCTCGPAGPVAASLAPVSATAGEDDDDVVGDVLALLAAPLAPGPRAPRVEAAFLCRLRRDALVERRALHELGVYYLPDAEGAFRRGPGLNLTSGQYRAPVAGFYALAATLHVALGEPPRRGPPRPRDHLRLLICIQSRCQRNASLEAIMGLESSSELFTISVNGVLYLQMGQWTSVFLDNASGCSLTVRSGSHFSAVLLGV
# modifications: biotin (site not stated)
# B7: monoFC-huErfe: monomeric Fc fusion of human ERFE; FIG. 3L legend names the A4 mutant (protein)
# chain: AAGLGSPEPGAPSRSRARREPPPGNELPRGPGESRAGPAARPPEPTAERAHSVDPRDAWMLFVRQSDKGVNGKKRSRGKAKKLKFGLPGPPGPPGPQGPPGPIIPPEALLKEFQLLLKGAVRQRERAEPEPCTCGPAGPVAASLAPVSATAGEDDDDVVGDVLALLAAPLAPGPRAPRVEAAFLCRLRRDALVERRALHELGVYYLPDAEGAFRRGPGLNLTSGQYRAPVAGFYALAATLHVALGEPPRRGPPRPRDHLRLLICIQSRCQRNASLEAIMGLESSSELFTISVNGVLYLQMGQWTSVFLDNASGCSLTVRSGSHFSAVLLGV
# modifications: left off: a dimerising Fc or GST
# Tests used:
# [1] = tested on: biotinylated monoFC-muErfe; test: FRET assay: BMPs disrupting binding of cryptate-labelled anti-ERFE antibody 15.1 to biotinylated monoFC-muErfe; design: species or system murine; conditions: competing antigen 250 nM to 0.39 nM, Ab 15.1 15 nM, 3 hours room temperature
# Experimental: (a) Investigation of the ability of BMPs to disrupt binding of cryptate-labelled anti-ERFE antibody to biotinylated murine ERFE: FRET assay was used to determine the ability of BMPs to disrupt binding between ERFE and a neutralising anti-ERFE antibody (Ab 15.1). The assay setup comprised streptavidin XL665 (cisbio assays) at a constant concentration of 1:1000 to be 50 ng per well, biotinylated monoFC-muErfe (9 μM) i.e. a monomeric FC murine ERFE fusion, cryptate labelled anti-ERFE antibody (Ab 15.1) at 15 nM. Each reaction well contained a total volume of 20 μl comprising: 5 μl streptavidin XL665, 5 μl Biotinylated monoFC-muErfe, 5 μl cryptate labelled anti-ERFE antibody 15.1, 5 μl competing antigen as a titration from 250 nM to 0.39 nM, all antigens at each concentration were assayed in duplicate. Reactions were left for 3 hours at room temperature and then […] at 665 nm and […] was read on the Envision. […] The assay was also conducted using a non-neutralising anti-ERFE antibody as a control.
# [2] = tested on: HAMP-nanoluciferase fusion in HepG2 hepatoma cells; test: hepcidin transcriptional fusion reporter assay (nano-luc / nano-luciferase assay); assay type: cell-based; conditions: for hepcidin expression (hepcidin-nanoluciferase fusion expression): NanoLuc cells, serially diluted BMP, 24 h
# Experimental: The was measured in-vitro using as follows: A hepcidin transcriptional fusion reporter assay (nano-luc or nano-luciferase assay) was developed to assess the effect of BMPs on hepcidin production in-vitro. A nanoluciferase reporter was inserted at the end of the coding sequence of the endogenous HAMP gene, in HepG2 hepatoma cells, creating a HAMP-nanoluciferase fusion. CRISPR-Cas9 was used to edit the cells with this knock-in reporter construct. A bovine Growth Hormone poly A was included after the nanoLuc to ensure proper mRNA processing. A Puromycin-TK expression cassette was also included 3′ of the nanoluc reporter to enrich for properly targeted clones. […] Approximately 20,000 cells (cells split with trypsin/EDTA) were suspended in 200 uL of complete media (DMEM+10% serum+Na pyruvate) and were distributed into each well of 96-well plates and incubated for 24 hours at 37 C. Media was then aspirated and the cells treated in 100 uL complete media for 24 h at 37 C in the presence of the selected BMP which was serial diluted (in duplicates), controls of fresh media alone were used for a baseline signal (in duplicate). Following the incubation 90 uL of supernatant was transferred to a white wall 96 well plate and equilibrated at RT, 90 uL of RT NanoLuc reagent was added/well (for 1 plate, 10 mL diluting reagent+200 uL NanoLuc substrate—from Nano-Glo Luciferase Assay System, Promega, ref cat #N1150) and mixed 2-3 min at room temperature. Plates were read on Envision with Lum700 program following the manufacturer's instructions.
# [3] = tested on: SMAD1/5/8 phosphorylation in Huh7 cells; test: Western blot of SMAD1/5/8 phosphorylation in Huh7 cells; assay type: cell-based; conditions: Huh7, BMP6 stimulation, 30 min
# Experimental: (d) ERFE effects on BMP/SMAD signalling measured by SMAD 1/5/8 phosphorylation: To confirm the suppression of BMP/SMAD signalling, we analysed phosphorylation of SMAD1/5/8, required to transduce the signal leading to HAMP upregulation. Analysis was carried out by Western blot according to the following methodology: Cells were lysed at 4° C. using RIPA buffer (Thermo Scientific) containing protease/phosphatase inhibitor (Cell Signalling). Lysates were denatured at 95° C. and separated on a 10% SDS polyacrylamide gel (Bio-Rad), following the manufacturer's instruction. Protein sizes were estimated by using the Novex Sharp Pre-Stained Protein Ladder (life technologies). Protein was transferred to a nitrocellulose membrane, then blocked with milk/TBS for 1 h. Antibodies used were anti-P-SMAD 1/5 (S463s/465)/9(S465/467) (Cell signalling 13820S 1:500), anti-Smad1 (Cell Signalling 6944S 1:500), anti-β-actin-peroxidase (Sigma A3854 1:10 000), and Anti-rabbit IgG HRP conjugated (RnD systems HAP008 1:5000). […] In this case Huh7 cells were treated with mouse ERFE (10 μg/ml) or BMP6 and LDN, a small molecule inhibitor of BMPs, (100 nM), alone or in combination, for 30 min and pSMAD/SMAD ratios values were calculated by densitometry. Erythroferrone caused a decrease in SMAD phosphorylation relative to non-treated cells (FIG. 3D).
# Huh7 cells = test: Gene expression microarray of Huh7 cells treated with ERFE; assay type: cell-based; conditions: Huh7, ERFE 10 μg/ml, 24 h
# Experimental: (b) Gene expression microarray: Microarray analysis of Huh7 cells treated with mouse or human erythroferrone was carried out to test the activity of erythroferrone on the BMP/SMAD signalling pathway. Generally cell treatments were carried out according to the following protocol: Huh7 and HepG2 were cultured in Dulbecco's Modified Eagle's Medium—High Glucose (Sigma), supplemented with 10% Fetal Bovine Serum (Sigma), 1% Penicillin-Streptomycin (Sigma) and 1% L-Glutamine (Sigma), unless otherwise indicated. Cells were plated 24 h before treatments in 24-well (gene expression analysis) or 12-well (protein analysis) cell culture plates. At the time of treatment, cells were washed with PBS and fresh media was added.
# For the purposes of gene expression microarray analysis RNA was isolated from the Huh7 cells using RNeasy Plus kit (Qiagen), this was followed by RNA quantification and quality assessment using a 2100 Bioanalyzer (Agilent). RNA was converted into biotin labelled cRNA for hybridization and gene expression analysed using the Human HT12v4.0 Expression Beadchip (Illumina) and the Illuminas's iScan Scanner. Raw data was normalised using the lumi package (Bioconductor) and compared using LIMMA (Bioconductor). Statistical significance was set at p<0.05.
# BMP2 = target: T1, BMP2; test: SPR (Biacore)
# BMP4 = target: T2, BMP4; test: SPR (Biacore)
# BMP6 = target: T3, BMP6; test: SPR (Biacore)
# Chain of biotinylated monoFC-muErfe (Q6PGN1 25-340): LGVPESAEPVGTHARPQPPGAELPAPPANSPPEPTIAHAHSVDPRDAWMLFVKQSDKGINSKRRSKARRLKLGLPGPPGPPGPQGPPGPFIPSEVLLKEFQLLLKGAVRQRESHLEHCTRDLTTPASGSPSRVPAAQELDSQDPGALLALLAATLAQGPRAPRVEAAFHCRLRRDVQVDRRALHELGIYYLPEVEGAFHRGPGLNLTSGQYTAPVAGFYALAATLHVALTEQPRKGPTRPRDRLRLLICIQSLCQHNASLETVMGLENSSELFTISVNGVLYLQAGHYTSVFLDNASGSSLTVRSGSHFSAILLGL
molecule,measurement,setting,value
BMP4: bone morphogenetic protein 4 (R&D systems),competition with cryptate labelled anti-ERFE antibody for binding to biotinylated monoFC-muErfe,[1],did not compete effectively
B1,competition with cryptate labelled anti-ERFE antibody for binding to biotinylated monoFC-muErfe,[1],measurable competition
B2,hepcidin expression (hepcidin-nanoluciferase fusion expression),[2],dose-dependent increase
B3,competition with cryptate labelled anti-ERFE antibody for binding to biotinylated monoFC-muErfe,[1],measurable competition
same,hepcidin expression (hepcidin-nanoluciferase fusion expression),[2],dose-dependent increase
same,SMAD phosphorylation,[3],increase
B4,target genes of the JAK/STAT3 pathway,Huh7 cells,No changes
same,number of suppressed genes,"Huh7 cells; 5 are BMP/SMAD targets ID1, ID2, ID3, SMAD6, HAMP",12
B5,competition with cryptate labelled anti-ERFE antibody for binding to biotinylated monoFC-muErfe,[1],measurable competition
B6,Kd,BMP2,16.1 nM
same,Kd,BMP4,41.1 nM
same,Kd,BMP6,1.17 nM
B7,suppression of hepcidin production (NanoLuc),"[2]; two fold dilutions from 600 nM, 24 hours",dose dependent
